{"source": "patent US20050002950", "biological_target": "recombinant human C5a (UniProt P01031)", "sequence (P01031 678-751)": "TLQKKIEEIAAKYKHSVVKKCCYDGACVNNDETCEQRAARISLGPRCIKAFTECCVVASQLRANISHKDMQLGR"}
{"substance": "ScpB, the C5a peptidase of GBS, on whole cells of strain COH1", "values": [{"measurement": "C5a protease activity (C5a-stimulated PMN adherence to gelatin-coated plastic after preincubating C5a with GBS)", "result": "Preincubation of C5a with COH1 or TOH121 abolished C5a activity"}]}
